{"source": "paper doi:10.1101/2021.08.20.457142", "parents": {"B1": {"name": "MKK7 D-site peptide (second D-site) / JNK1 alpha1 (MAPK8 isoform 1) L198A, full length (parent complex)", "chain 1": "SQPQRPRPTLQLPLANEAFEQP", "chain 2": "MSRSKRDNNFYSVEIGDSTFTVLKRYQNLKPIGSGAQGIVCAAYDAILERNVAIKKLSRPFQNQTHAKRAYRELVLMKCVNHKNIIGLLNVFTPQKSLEEFQDVYIVMELMDANLCQVIQMELDHERMSYLLYQMLCGIKHLHSAGIIHRDLKPSNIVVKSDCTLKILDFGLARTAGTSFMMTPYVVTRYYRAPEVIAGMGYKENVDLWSVGCIMGEMVCHKILFPGRDYIDQWNKVIEQLGTPCPEFMKKLQPTVRTYVENRPKYAGYSFEKLFPDVLFPADSEHNKLKASQARDLLSKMLVIDASKRISVDEALQHPYINVWYDPSEAEAPPPKIPDKQLDEREHTIEEWKELIYKEVMDLEERTKNGVIRGQPSPLAQVQQ"}, "B2": {"name": "MKK6 D-site peptide / p38-alpha (MAPK14) L195A, full length (parent complex)", "chain 1": "SQSKGKKRNPGLKIPKEAFEQP", "chain 2": "MSQERPTFYRQELNKTVWEVPERYQNLSPVGSGAYGSVCAAFDTKTGHRVAVKKLSRPFQSIIHAKRTYRELRLLKHMKHENVIGLLDVFTPARSLEEFNDVYLVTHLMGADLNNIVKCQKLTDDHVQFLIYQILRGLKYIHSADIIHRDLKPSNLAVNEDCELKILDFGLARHTDDEMTGYVATRWYRAPEIMANWMHYNQTVDIWSVGCIMAELLTGRTLFPGTDHIDQLKLILRLVGTPGAELLKKISSESARNYIQSLAQMPKMNFANVFIGANPLAVDLLEKMLVLDSDKRITAAQALAHAYFAQYHDPDDEPVAEPYDQSFESRDFLIDEWKSLTYDEVISFVPPPLDQEEMES"}}, "data": [{"variants_of": "B1", "values": [{"variant": "chain 1 P3W", "screen value": "1.63 Z-score of the enrichment rate within one screen of 711 sequences"}, {"variant": "chain 1 P3Q", "screen value": "1.24 Z-score of the enrichment rate within one screen of 711 sequences"}, {"variant": "chain 1 P6A, chain 1 L10A", "screen value": "-0.724 Z-score of the enrichment rate within one screen of 711 sequences"}, {"variant": "chain 1 Q4A, chain 1 N16A", "screen value": "1.68 Z-score of the enrichment rate within one screen of 711 sequences"}, {"variant": "chain 1 R5S", "screen value": "0.06 Z-score of the enrichment rate within one screen of 711 sequences"}, {"variant": "chain 1 R5L", "screen value": "0.573 Z-score of the enrichment rate within one screen of 711 sequences"}, {"variant": "chain 1 R5Y", "screen value": "0.459 Z-score of the enrichment rate within one screen of 711 sequences"}, {"variant": "chain 1 A15N", "screen value": "1.48 Z-score of the enrichment rate within one screen of 711 sequences"}, {"variant": "chain 1 A15D", "screen value": "1.08 Z-score of the enrichment rate within one screen of 711 sequences"}, {"variant": "chain 1 P3A, chain 1 L12A", "screen value": "-0.854 Z-score of the enrichment rate within one screen of 711 sequences"}, {"variant": "chain 1 Q4C", "screen value": "1.41 Z-score of the enrichment rate within one screen of 711 sequences"}, {"variant": "chain 1 Q4D", "screen value": "0.92 Z-score of the enrichment rate within one screen of 711 sequences"}, {"variant": "chain 1 Q4V", "screen value": "1.56 Z-score of the enrichment rate within one screen of 711 sequences"}, {"variant": "chain 1 Q4K", "screen value": "1.91 Z-score of the enrichment rate within one screen of 711 sequences"}, {"variant": "chain 1 L14Y", "screen value": "0.328 Z-score of the enrichment rate within one screen of 711 sequences"}, {"variant": "chain 1 L14H", "screen value": "0.415 Z-score of the enrichment rate within one screen of 711 sequences"}, {"variant": "chain 1 L14P", "screen value": "0.76 Z-score of the enrichment rate within one screen of 711 sequences"}, {"variant": "chain 1 P13K", "screen value": "1.72 Z-score of the enrichment rate within one screen of 711 sequences"}, {"variant": "chain 1 P13M", "screen value": "1.22 Z-score of the enrichment rate within one screen of 711 sequences"}, {"variant": "chain 1 P13G", "screen value": "0.542 Z-score of the enrichment rate within one screen of 711 sequences"}, {"variant": "chain 1 P6A, chain 1 R7A", "screen value": "0.187 Z-score of the enrichment rate within one screen of 711 sequences"}, {"variant": "chain 1 P6A, chain 1 L14A", "screen value": "0.556 Z-score of the enrichment rate within one screen of 711 sequences"}, {"variant": "chain 1 L10A, chain 1 Q11A", "screen value": "-0.534 Z-score of the enrichment rate within one screen of 711 sequences"}, {"variant": "chain 1 L12G", "screen value": "-0.442 Z-score of the enrichment rate within one screen of 711 sequences"}, {"variant": "chain 1 L12Q", "screen value": "-0.624 Z-score of the enrichment rate within one screen of 711 sequences"}, {"variant": "chain 1 P8E", "screen value": "0.296 Z-score of the enrichment rate within one screen of 711 sequences"}, {"variant": "chain 1 P8A", "screen value": "0.456 Z-score of the enrichment rate within one screen of 711 sequences"}, {"variant": "chain 1 Q11P", "screen value": "0.901 Z-score of the enrichment rate within one screen of 711 sequences"}, {"variant": "chain 1 Q11F", "screen value": "2.16 Z-score of the enrichment rate within one screen of 711 sequences"}, {"variant": "chain 1 Q11S", "screen value": "1.45 Z-score of the enrichment rate within one screen of 711 sequences"}, {"variant": "chain 1 Q11A", "screen value": "1.44 Z-score of the enrichment rate within one screen of 711 sequences"}, {"variant": "chain 1 P6A, chain 1 P13A", "screen value": "0.914 Z-score of the enrichment rate within one screen of 711 sequences"}, {"variant": "chain 1 T9A, chain 1 L10A", "screen value": "-0.519 Z-score of the enrichment rate within one screen of 711 sequences"}, {"variant": "chain 1 N16S", "screen value": "1.15 Z-score of the enrichment rate within one screen of 711 sequences"}, {"variant": "chain 1 N16Q", "screen value": "1.61 Z-score of the enrichment rate within one screen of 711 sequences"}, {"variant": "chain 1 L12A, chain 1 L14A", "screen value": "-0.584 Z-score of the enrichment rate within one screen of 711 sequences"}, {"variant": "chain 1 T9A, chain 1 P13A", "screen value": "0.848 Z-score of the enrichment rate within one screen of 711 sequences"}, {"variant": "chain 1 L10C", "screen value": "-0.173 Z-score of the enrichment rate within one screen of 711 sequences"}, {"variant": "chain 1 P3A, chain 1 Q11A", "screen value": "1.08 Z-score of the enrichment rate within one screen of 711 sequences"}, {"variant": "chain 1 P6N", "screen value": "1.28 Z-score of the enrichment rate within one screen of 711 sequences"}, {"variant": "chain 1 P6K", "screen value": "1.52 Z-score of the enrichment rate within one screen of 711 sequences"}, {"variant": "chain 1 P6Y", "screen value": "0.933 Z-score of the enrichment rate within one screen of 711 sequences"}, {"variant": "chain 1 P6M", "screen value": "1.27 Z-score of the enrichment rate within one screen of 711 sequences"}, {"variant": "chain 1 P3A, chain 1 T9A", "screen value": "0.956 Z-score of the enrichment rate within one screen of 711 sequences"}]}, {"variants_of": "B2", "values": [{"variant": "chain 1 G5A, chain 1 K7A", "screen value": "0.268 Z-score of the enrichment rate within one screen of 711 sequences"}, {"variant": "chain 1 L12A, chain 1 K16A", "screen value": "-0.931 Z-score of the enrichment rate within one screen of 711 sequences"}, {"variant": "chain 1 K13A, chain 1 K16A", "screen value": "-0.809 Z-score of the enrichment rate within one screen of 711 sequences"}, {"variant": "chain 1 P10Y", "screen value": "0.723 Z-score of the enrichment rate within one screen of 711 sequences"}, {"variant": "chain 1 P10C", "screen value": "0.201 Z-score of the enrichment rate within one screen of 711 sequences"}, {"variant": "chain 1 P10S", "screen value": "0.158 Z-score of the enrichment rate within one screen of 711 sequences"}, {"variant": "chain 1 P10L", "screen value": "1.79 Z-score of the enrichment rate within one screen of 711 sequences"}, {"variant": "chain 1 P10M", "screen value": "0.502 Z-score of the enrichment rate within one screen of 711 sequences"}, {"variant": "chain 1 R8L", "screen value": "0.23 Z-score of the enrichment rate within one screen of 711 sequences"}, {"variant": "chain 1 R8Y", "screen value": "0.157 Z-score of the enrichment rate within one screen of 711 sequences"}, {"variant": "chain 1 R8N", "screen value": "0.126 Z-score of the enrichment rate within one screen of 711 sequences"}, {"variant": "chain 1 R8E", "screen value": "-0.5 Z-score of the enrichment rate within one screen of 711 sequences"}, {"variant": "chain 1 R8S", "screen value": "0.135 Z-score of the enrichment rate within one screen of 711 sequences"}, {"variant": "chain 1 I14A, chain 1 P15A", "screen value": "-1.12 Z-score of the enrichment rate within one screen of 711 sequences"}, {"variant": "chain 1 K6A, chain 1 I14A", "screen value": "-1.08 Z-score of the enrichment rate within one screen of 711 sequences"}, {"variant": "chain 1 R8A, chain 1 L12A", "screen value": "-0.76 Z-score of the enrichment rate within one screen of 711 sequences"}, {"variant": "chain 1 K7S", "screen value": "0.9 Z-score of the enrichment rate within one screen of 711 sequences"}, {"variant": "chain 1 K7G", "screen value": "1.17 Z-score of the enrichment rate within one screen of 711 sequences"}, {"variant": "chain 1 K7V", "screen value": "0.633 Z-score of the enrichment rate within one screen of 711 sequences"}, {"variant": "chain 1 K7D", "screen value": "-0.807 Z-score of the enrichment rate within one screen of 711 sequences"}, {"variant": "chain 1 K16T", "screen value": "0.151 Z-score of the enrichment rate within one screen of 711 sequences"}, {"variant": "chain 1 K16A", "screen value": "0.957 Z-score of the enrichment rate within one screen of 711 sequences"}, {"variant": "chain 1 K16I", "screen value": "1.8 Z-score of the enrichment rate within one screen of 711 sequences"}, {"variant": "chain 1 K16Q", "screen value": "0.247 Z-score of the enrichment rate within one screen of 711 sequences"}, {"variant": "chain 1 K16D", "screen value": "-0.827 Z-score of the enrichment rate within one screen of 711 sequences"}, {"variant": "chain 1 S3A, chain 1 K13A", "screen value": "-0.319 Z-score of the enrichment rate within one screen of 711 sequences"}, {"variant": "chain 1 N9K", "screen value": "1.98 Z-score of the enrichment rate within one screen of 711 sequences"}, {"variant": "chain 1 N9S", "screen value": "0.752 Z-score of the enrichment rate within one screen of 711 sequences"}, {"variant": "chain 1 N9T", "screen value": "0.467 Z-score of the enrichment rate within one screen of 711 sequences"}, {"variant": "chain 1 N9P", "screen value": "1.77 Z-score of the enrichment rate within one screen of 711 sequences"}, {"variant": "chain 1 N9H", "screen value": "1.51 Z-score of the enrichment rate within one screen of 711 sequences"}]}]}
